One substance from paper PMC12408800 can be followed below.

The target of the experiment is KhpB from Thermus thermophilus (Thermus thermophilus HB8). The experiment in a line: SEC.

With “KhpB from Thermus thermophilus (natural protein)”, the stoichiometry N is 2.
